# Legend:
# [1] = biological target: GDF15-HIS(百普赛斯，CAT#:GD5-H5149) (human) (UniProt Q99988); experiment: BLI (ForteBio Octet), antibody captured at 10 μg/ml, GDF15 6.25-200 nM
# [2] = biological target: GDF15-mFC蛋白(GDF15:Genbank登记号NM_004864.3;mFC:Genbank登记号AAH31470.1) (human; mouse) (UniProt Q99988); experiment: competition ELISA: blocks GDF15-mFC binding to coated GFRAL-hFc
# [3] = biological target: GDF15-HIS(百普赛斯，CAT#:GD5-H5149) (human) (UniProt Q99988); experiment: cell-based or functional assay
# [4] = biological target: GDF15-HIS(百普赛斯，CAT#:GD5-H5149) (human) (UniProt Q99988); experiment: ELISA, GDF15-HIS coated
# GDF15-HIS(百普赛斯，CAT#:GD5-H5149) (human), sequence (Q99988 197-308 limits assumed): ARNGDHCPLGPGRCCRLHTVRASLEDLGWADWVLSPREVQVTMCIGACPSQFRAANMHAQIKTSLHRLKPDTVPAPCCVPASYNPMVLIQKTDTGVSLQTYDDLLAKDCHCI
substance,measurement,setting,value
Ponsegromab(Pfizer;Drug Bank:D11909) (antibody),Kd,[1],< 1 pM
same,koff,[1],< 1e-07 s⁻¹
same,kon,[1],711000 M⁻¹ s⁻¹
same,IC50,[2],0.504 µg/mL
same,OD450.Max,[2],1.02 OD450
same,"Bottom (fold luciferase activity), HEK293 SRE-LUC2-cRET-GFRAL reporter cells",[3],1.07
same,"IC50(μg/ml), luciferase in HEK293 SRE-LUC2-cRET-GFRAL reporter cells stimulated with 5 ng/ml GDF15-His",[3],0.0321 µg/mL
same,EC50,[4],0.096 µg/mL
same,OD450.Max,[4],1.1 OD450

# — CN116535503A
